Test results: US20250346682A1 (TENEOBIO, published 2025)
One block for each binder: values may come before it.

Molecular target: T1, human CD20 (B-lymphocyte antigen CD20) (human, UniProt P11836 1-297)
T1 construct: whole, on cells; also called MS4A1
T1 sequence (looked up): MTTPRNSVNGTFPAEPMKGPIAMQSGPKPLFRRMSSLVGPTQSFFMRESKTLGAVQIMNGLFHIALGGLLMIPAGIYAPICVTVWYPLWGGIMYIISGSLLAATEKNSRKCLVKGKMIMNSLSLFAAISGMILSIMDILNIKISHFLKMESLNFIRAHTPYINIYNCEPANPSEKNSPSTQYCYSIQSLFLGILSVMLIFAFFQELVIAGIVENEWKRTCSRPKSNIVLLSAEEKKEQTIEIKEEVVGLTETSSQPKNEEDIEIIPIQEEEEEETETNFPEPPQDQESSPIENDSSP
Assay: ELISA on CD20 protein and cell-binding assays

binding result: binds
B1: anti-CD20 heavy chain-only antibody (UniAb) Clone ID 367912 (antibody, V domains shown)
VH: EVQLVESGGGVVRPGGSLRLSCAASGFTFDDYGMSWVRQAPGKGLEWVSSINWNGGSKGYADSVKGRFTISRDNAKNSLYLQMNSLRVEDTALYQCARERGYRIGHDSFDIWGQGTLVTVSS
notes: Heavy chain-only antibody (UniAb) from UniRat, called human IgG, with no light chain; also called VH912

binding result: binds
B2: anti-CD20 heavy chain-only antibody (UniAb) Clone ID 367936 (antibody, V domains shown)
VH: QVQLQESGPGLVKPSETLSLTCTVSGGSVSSGNYYWNWIRQPPGKGLEWIGYIYSSGSTKYNPSLKSRVTILVDTSKNQFSLKLSSVTAADTAVYYCARSRLNGDGLFDDRGQGTLVTVSS
notes: Heavy chain-only antibody (UniAb) from UniRat, called human IgG, with no light chain; also called VH936
